Test results reported in patent publication US20190225703A1.

Biological target: cynomolgus CD73 expressed at the cell surface (cynomolgus)
Assay: flow cytometry titration on cynomolgus-CD73-expressing cell line

Work on “antibody AD2 (Biolegend Corp, product ref. 344004)” yielded an EC50 of 1.15 µg/mL and a fold higher concentration (EC50) than 7H10 of 4 fold.
